Measured values reported in article PMC2819690.

Key:
[1] = biological target: ΔN complex (Syb49–96:SyxH3:SNAP-25) (rat) (UniProt P63045); assay: fluorescence polarisation
[2] = biological target: ΔN complex (Syb49–96:SyxH3:SNAP-25) (rat) (UniProt P63045); assay: ITC

Substance | kon [1] [M⁻¹ s⁻¹] | Kd [2] [nM] | dH [2] [kcal/mol]
Syb1–96 V39A, V42A, S28C, labeled (from UniProt P63045 1-96) (domain or fragment) | 263000 | – | –
Syb F77A (from UniProt P63045 1-96) (domain or fragment) | – | 0.8 | -18.8
